What was measured:
PfuGRHPR [1] = target: T1, PfuGRHPR (Pyrococcus furiosus, UniProt Q8U3Y2); assay: crystal structure […] Å; assay type: binding
T1 construct: gene gyaR; synthetic codon-optimised gene in pET41c, E. coli BL21(DE3)-RIL; no tag mentioned; heat step 85 °C, Resource Q, Superose 12; 66 kDa homodimer
T1 sequence (Q8U3Y2 1-336): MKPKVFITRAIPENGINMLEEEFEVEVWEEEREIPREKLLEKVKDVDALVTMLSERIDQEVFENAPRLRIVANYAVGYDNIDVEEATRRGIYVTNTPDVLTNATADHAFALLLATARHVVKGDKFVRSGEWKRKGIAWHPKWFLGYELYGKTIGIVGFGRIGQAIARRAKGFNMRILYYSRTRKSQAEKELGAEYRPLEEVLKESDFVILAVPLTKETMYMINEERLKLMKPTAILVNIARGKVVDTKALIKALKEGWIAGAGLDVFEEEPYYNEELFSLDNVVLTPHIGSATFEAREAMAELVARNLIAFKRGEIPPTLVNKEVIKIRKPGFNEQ

PyaGRHPR [2] = target: T2, PyaGRHPR (Pyrococcus yayanosii, UniProt F8AEA4); assay: NAD(P)H absorbance at […] nm, substrate inhibition fit; assay type: biochemical; conditions: NADH 0.5 mM, Tris-HCl 100 mM pH 8.0, 50 °C
T2 construct: gene gyaR; synthetic codon-optimised gene in pET41c, E. coli BL21(DE3)-RIL; no tag mentioned; heat step 85 °C, Resource Q, Superose 12; 66 kDa homodimer
T2 sequence (F8AEA4 1-333): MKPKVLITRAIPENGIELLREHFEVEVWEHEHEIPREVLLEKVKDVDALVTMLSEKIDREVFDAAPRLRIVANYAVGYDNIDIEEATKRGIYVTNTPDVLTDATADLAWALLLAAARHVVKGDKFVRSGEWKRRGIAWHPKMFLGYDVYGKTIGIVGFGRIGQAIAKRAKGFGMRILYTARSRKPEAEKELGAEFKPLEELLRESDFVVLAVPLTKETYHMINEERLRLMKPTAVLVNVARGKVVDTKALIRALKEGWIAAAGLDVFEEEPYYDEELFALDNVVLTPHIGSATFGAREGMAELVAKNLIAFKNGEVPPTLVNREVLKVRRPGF

PfuGRHPR [3] = target: T1, PfuGRHPR; assay: as above; assay type: biochemical; conditions: NADH 0.5 mM, Tris-HCl 100 mM pH 8.0, 50 °C
PhoGRHPR = target: T3, PhoGRHPR (Pyrococcus horikoshii, UniProt O58320); assay: as above; assay type: biochemical; conditions: NADH 0.5 mM, Tris-HCl 100 mM pH 8.0, 50 °C
T3 construct: gene gyaR; synthetic codon-optimised gene in pET41c, E. coli BL21(DE3)-RIL; no tag mentioned; heat step 85 °C, Resource Q, Superose 12; 66 kDa homodimer
T3 sequence (O58320 1-334): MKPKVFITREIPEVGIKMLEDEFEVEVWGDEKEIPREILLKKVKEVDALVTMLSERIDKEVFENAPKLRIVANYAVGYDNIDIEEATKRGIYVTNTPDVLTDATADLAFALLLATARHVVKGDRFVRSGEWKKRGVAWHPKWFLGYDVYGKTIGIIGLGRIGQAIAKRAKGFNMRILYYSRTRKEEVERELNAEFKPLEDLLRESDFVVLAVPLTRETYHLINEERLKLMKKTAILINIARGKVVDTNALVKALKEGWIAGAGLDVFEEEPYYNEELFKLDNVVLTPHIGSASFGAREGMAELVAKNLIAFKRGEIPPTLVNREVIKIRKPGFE

PfuGRHPR [4] = target: T1, PfuGRHPR; assay: NAD(P)H absorbance at […] nm; assay type: biochemical; conditions: co-substrate hydroxypyruvate or glyoxylate, Tris-HCl 100 mM pH 8.0, 50 °C
PyaGRHPR [5] = target: T2, PyaGRHPR; assay: NAD(P)H absorbance at […] nm; assay type: biochemical; conditions: co-substrate hydroxypyruvate or glyoxylate, Tris-HCl 100 mM pH 8.0, 50 °C
PyaGRHPR [6] = target: T2, PyaGRHPR; assay: crystal structure […] Å; assay type: binding; conditions: copurified
purified protein [7] = substrate: O=CC(=O)O; assay: purified protein; assay type: biochemical, Pyrococcus horikoshii; conditions: NADH 0.5 mM, Tris-HCl 100 mM pH 8.0, 50 °C
purified protein [8] = substrate: O=C(O)C(=O)CO; assay: purified protein; assay type: biochemical, Pyrococcus horikoshii; conditions: NADH 0.5 mM, Tris-HCl 100 mM pH 8.0, 50 °C
purified protein [9] = substrate: O=CC(=O)O; assay: purified protein; assay type: biochemical, Pyrococcus furiosus; conditions: NADH 0.5 mM, Tris-HCl 100 mM pH 8.0, 50 °C
purified protein [10] = substrate: O=C(O)C(=O)CO; assay: purified protein; assay type: biochemical, Pyrococcus furiosus; conditions: NADH 0.5 mM, Tris-HCl 100 mM pH 8.0, 50 °C
purified protein [11] = substrate: O=CC(=O)O; assay: purified protein; assay type: biochemical, Pyrococcus yayanosii; conditions: NADH 0.5 mM, Tris-HCl 100 mM pH 8.0, 50 °C
purified protein [12] = substrate: O=C(O)C(=O)CO; assay: purified protein; assay type: biochemical, Pyrococcus yayanosii; conditions: NADH 0.5 mM, Tris-HCl 100 mM pH 8.0, 50 °C

## O=CC(=O)O [glyoxylate]
PfuGRHPR [1]; ternary complex with NADP(H), ligand carried over from E. coli, active site, further molecule in tunnel
  crystal structure 1.40 Å: the determination of the PfuGRHPR structure reveals a ternary complex in the presence of glyoxylate

## O=C(O)C(=O)CO [hydroxypyruvate]
PyaGRHPR [2]
  PyaGRHPR / NADH: 760 ± 200 µM
PfuGRHPR [3]
  PfuGRHPR / NADH: 350 ± 140 µM
PhoGRHPR
  PhoGRHPR / NADH: 3820 ± 680 µM

## NC(=O)C1=CN([C@@H]2O[C@H](COP(=O)(O)OP(=O)(O)OC[C@H]3O[C@@H](n4cnc5c(N)ncnc54)[C@H](O)[C@@H]3O)[C@@H](O)[C@H]2O)C=CC1 [NADH]
PfuGRHPR [4]
  KM: Archaeal GRHPR presents higher affinity for NADPH compared to NADH
PyaGRHPR [5]
  KM: Archaeal GRHPR presents higher affinity for NADPH compared to NADH

## O=C(O)[C@H](O)CO [D-glycerate]
PyaGRHPR [6]; ternary complex with NADP(H), active site, density did not distinguish D-glycerate from hydroxypyruvate
  crystal structure 2.0 Å: The PyaGRHPR structure contains D-glycerate, product of HPR activity

## NC(=O)C1=CN([C@@H]2O[C@H](COP(=O)(O)OP(=O)(O)OC[C@H]3O[C@@H](n4cnc5c(N)ncnc54)[C@H](OP(=O)(O)O)[C@@H]3O)[C@@H](O)[C@H]2O)C=CC1 [NADPH]
PfuGRHPR [1]; ternary complex with glyoxylate, copurified, modelled as NADP(H), oxidation state not resolved
  crystal structure 1.40 Å: Both structures include a cofactor molecule, unambiguously modeled as NADP(H)
PfuGRHPR [4]
  KM: Archaeal GRHPR presents higher affinity for NADPH compared to NADH
PyaGRHPR [5]
  KM: Archaeal GRHPR presents higher affinity for NADPH compared to NADH
PyaGRHPR [6]; ternary complex with D-glycerate, modelled as NADP(H), oxidation state not resolved
  crystal structure 2.0 Å: Both structures include a cofactor molecule, unambiguously modeled as NADP(H)

B1: PhoGRHPR (Pyrococcus horikoshii OT3) (protein)
chain: T3 sequence (O58320 1-334)
notes: synthetic codon-optimised gene in pET41c, E. coli BL21(DE3)-RIL; no tag mentioned; heat step 85 °C, Resource Q, Superose 12; 66 kDa homodimer
Purified protein [7]
  Km: 160 ± 25 µM
  kcat: 4 ± 0.5 s⁻¹
  kcat/Km: 25000 ± 5000 M⁻¹ s⁻¹
Purified protein [8]
  Km: 70 ± 11 µM
  kcat: 4.5 ± 0.5 s⁻¹
  kcat/Km: 65000 ± 20000 M⁻¹ s⁻¹

B2: PfuGRHPR (Pyrococcus furiosus DSM 3638) (protein)
chain: T1 sequence (Q8U3Y2 1-336)
notes: as for B1
Purified protein [9]
  Km: 1800 ± 25 µM
  kcat: 13 ± 0.5 s⁻¹
  kcat/Km: 7000 ± 500 M⁻¹ s⁻¹
Purified protein [10]
  Km: 140 ± 55 µM
  kcat: 10 ± 5 s⁻¹
  kcat/Km: 75000 ± 50000 M⁻¹ s⁻¹

B3: PyaGRHPR (Pyrococcus yayanosii CH1) (protein)
chain: T2 sequence (F8AEA4 1-333)
notes: as for B1
Purified protein [11]
  Km: 1500 ± 140 µM
  kcat: 4.8 ± 0.2 s⁻¹
  kcat/Km: 3000 ± 500 M⁻¹ s⁻¹
Purified protein [12]
  Km: 410 ± 110 µM
  kcat: 25 ± 5 s⁻¹
  kcat/Km: 60000 ± 25000 M⁻¹ s⁻¹
